From US20110200608A1

Target: high molecular weight-melanoma associated antigen (HMW-MAA), human (human) (UniProt Q6UVK1)
Assay: competition cell ELISA on HMW-MAA+ SK-MEL-28 cells, 1 h at 4 °C, SA-HRP; competitor: biotinylated scFv C21 (0.25 µg/well); axis gives µg of mAb, not a concentration

Sequence of high molecular weight-melanoma associated antigen (HMW-MAA), human (human) (Q6UVK1 30-2322): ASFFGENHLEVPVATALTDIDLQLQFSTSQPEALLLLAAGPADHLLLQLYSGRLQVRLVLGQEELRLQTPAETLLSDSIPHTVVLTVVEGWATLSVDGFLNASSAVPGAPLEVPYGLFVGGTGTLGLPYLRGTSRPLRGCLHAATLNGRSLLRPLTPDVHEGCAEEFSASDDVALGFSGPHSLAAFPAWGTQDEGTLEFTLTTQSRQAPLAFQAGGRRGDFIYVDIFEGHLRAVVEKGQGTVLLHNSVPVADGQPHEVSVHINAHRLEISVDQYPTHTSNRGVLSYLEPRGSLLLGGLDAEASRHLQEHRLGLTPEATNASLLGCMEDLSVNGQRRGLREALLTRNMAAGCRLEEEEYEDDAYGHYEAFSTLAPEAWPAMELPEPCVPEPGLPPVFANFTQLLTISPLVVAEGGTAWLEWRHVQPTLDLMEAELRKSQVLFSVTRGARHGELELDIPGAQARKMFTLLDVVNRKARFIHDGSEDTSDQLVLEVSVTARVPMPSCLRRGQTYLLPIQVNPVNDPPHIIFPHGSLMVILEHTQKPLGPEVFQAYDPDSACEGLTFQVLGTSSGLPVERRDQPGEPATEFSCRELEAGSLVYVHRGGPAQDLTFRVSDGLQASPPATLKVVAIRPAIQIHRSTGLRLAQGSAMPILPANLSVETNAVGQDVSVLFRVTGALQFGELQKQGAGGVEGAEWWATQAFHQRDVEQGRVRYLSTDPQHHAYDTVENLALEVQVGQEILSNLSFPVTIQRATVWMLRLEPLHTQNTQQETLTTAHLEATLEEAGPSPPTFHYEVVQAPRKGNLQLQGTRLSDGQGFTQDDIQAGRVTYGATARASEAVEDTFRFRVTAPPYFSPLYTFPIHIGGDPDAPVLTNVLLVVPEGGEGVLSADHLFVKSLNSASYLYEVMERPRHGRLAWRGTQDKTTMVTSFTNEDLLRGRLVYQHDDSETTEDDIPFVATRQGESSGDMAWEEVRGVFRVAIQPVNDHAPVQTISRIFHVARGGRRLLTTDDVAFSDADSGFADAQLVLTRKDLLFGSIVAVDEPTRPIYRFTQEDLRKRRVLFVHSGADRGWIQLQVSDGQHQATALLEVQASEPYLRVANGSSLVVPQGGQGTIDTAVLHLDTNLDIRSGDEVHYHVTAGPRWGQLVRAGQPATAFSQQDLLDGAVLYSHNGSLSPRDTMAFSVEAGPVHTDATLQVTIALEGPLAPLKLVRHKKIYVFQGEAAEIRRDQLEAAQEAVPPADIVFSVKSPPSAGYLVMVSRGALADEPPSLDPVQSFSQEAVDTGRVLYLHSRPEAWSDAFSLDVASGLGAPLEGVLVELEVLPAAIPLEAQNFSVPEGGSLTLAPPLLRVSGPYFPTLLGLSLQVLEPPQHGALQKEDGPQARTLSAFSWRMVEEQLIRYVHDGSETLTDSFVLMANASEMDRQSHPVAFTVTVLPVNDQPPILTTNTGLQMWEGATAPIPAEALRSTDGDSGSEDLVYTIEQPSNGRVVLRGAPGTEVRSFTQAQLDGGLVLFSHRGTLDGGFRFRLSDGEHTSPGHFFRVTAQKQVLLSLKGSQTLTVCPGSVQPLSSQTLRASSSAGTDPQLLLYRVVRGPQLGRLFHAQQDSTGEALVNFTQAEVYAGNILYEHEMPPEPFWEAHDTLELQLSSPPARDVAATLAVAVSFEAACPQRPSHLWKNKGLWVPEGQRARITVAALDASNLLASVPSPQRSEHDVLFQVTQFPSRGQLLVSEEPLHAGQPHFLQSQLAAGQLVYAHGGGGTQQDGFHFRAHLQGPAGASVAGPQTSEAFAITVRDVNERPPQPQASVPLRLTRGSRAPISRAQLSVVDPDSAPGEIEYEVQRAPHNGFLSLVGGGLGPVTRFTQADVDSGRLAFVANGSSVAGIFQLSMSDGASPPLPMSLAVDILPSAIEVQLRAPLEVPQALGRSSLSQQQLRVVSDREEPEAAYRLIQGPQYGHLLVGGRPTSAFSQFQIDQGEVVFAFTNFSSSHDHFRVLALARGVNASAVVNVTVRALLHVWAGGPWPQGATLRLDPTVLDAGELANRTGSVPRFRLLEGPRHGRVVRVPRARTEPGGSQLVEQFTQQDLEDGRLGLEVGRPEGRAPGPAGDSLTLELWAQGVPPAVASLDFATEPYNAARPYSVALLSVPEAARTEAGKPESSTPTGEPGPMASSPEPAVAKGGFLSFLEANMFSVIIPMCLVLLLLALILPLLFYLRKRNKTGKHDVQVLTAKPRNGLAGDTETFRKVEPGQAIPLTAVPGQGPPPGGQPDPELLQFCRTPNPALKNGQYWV

With “HMW-MAA-specific mouse mAb VF1-TP34 (antibody)” as the substance, how does the IC50 (read off the curve) read?
The IC50 (read off the curve) was 0.03 µg.
